Test results reported in US11702465 (TRIAD NATIONAL SECURITY, dated 2023).

Target: T1, Yersinia pestis F1 antigen, cell-expressed (on Y. pestis cells) (Yersinia pestis, UniProt P26948 22-170)
T1 construct: whole, on cells; also called cell-expressed F1 antigen; F1-positive Y. pestis
Assay: affinity for cell-expressed F1 antigen (method not given)

T1 sequence (P26948 22-170): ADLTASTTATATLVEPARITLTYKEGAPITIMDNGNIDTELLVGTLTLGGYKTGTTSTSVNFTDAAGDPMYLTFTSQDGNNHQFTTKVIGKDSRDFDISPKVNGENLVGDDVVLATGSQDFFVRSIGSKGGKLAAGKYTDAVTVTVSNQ

Row | Binder | Kd [nM]
1 | AM IgG B (antibody, V domains shown, also called AM^a IgG B) VH: QVQLVESGGGLVKPGGSLRLSCAASGFTFSDYYMSWIRQAPGKGLEWVSYISGSGSIIYYADSVKGRFTISRDNAKNSLYLQMNSLRAEDTAVYYCAKEIRKHDAFDIWGQGTMVTVSS VL: DIRMTQSPSSLSASVGDRVTITCRASRSISGYLNWYQQKPGKAPKLLIYATSSLQSGVPSRFSGSGSGTDFTLTISSLQPEDFATYYCQQSYSTPSSFGQGTKVDIKR | 0.09
2 | AM IgG H (antibody, V domains shown, also called AM^a IgG H) VH: QVQLQQWGAGLLKPSETLSLTCAVYGGSFSGYYWSWIRQPPGKGLEWIGEINRSGNTNYNPSLKSRVTISVDTSKNQFSLQLNSVTPEDTAVYYCARTRGYFDLWGRGTLVTVSS VL: QPVLTQSPSVSVSPGQTASITCSGDKLGGRYASWYQQKPGQSPVLVIYQDTKRPSGIPERFSGSNSGNTATLTISGTQAMDEADYYCQSWDSSAAVFGTGTKLTVLG | 0.03
